Measurements published in article PMC4612324, “Comparing the efficacy and neuroinflammatory potential of three anti-abeta antibodies” (Acta Neuropathologica, 2015).

Biological target: T1, Aβ 1-40 peptide (UniProt P05067 672-711)
T1 construct: amyloid beta peptide Aβ 1-40, cut product of the amyloid precursor protein (APP); the methods call it a bought peptide, the results a 'recombinant peptide'; also called recombinant peptide; immobilised Aβ; source: bought: America Peptide, Sunnyvale, CA
Experiment: ELISA; Aβ1-40 peptide coated on Maxisorp plates (0.1 µg/ml, bicarbonate buffer pH 9.6); antibodies serially diluted in PBS/1 % BSA, 1 h at room temperature; detected with biotinylated anti-mouse IgG and streptavidin poly-HRP; relative affinity
Details: both partners purified

B1: mC2 (murine parent antibody of Crenezumab), recombinant with mouse IgG2a constant region (antibody, V domains shown)
VH: EVQLVESGGGLVQPGGSLKLSCAASGFTFSSYGMSWVRQTPDKRLELVASINSNGGSTYYPDSVKGRFTISRDNAKNTLYLQMSSLKSEDTAMYYCASGDYWGQGSTLTVSS
VL: DVVMTQTPLSLPVSLGDQASISCRSSQSLVYSNGDTYLHWYLQKPGQSPKLLIYKVSNRFSGVPDRFSGSGSGTDFTLKISRVEAEDLGVYFCSQSTHVPWTFGGGTKLEIKR
notes: heavy chain variable domain of mC2; mouse IgG2a heavy chain constant domain; light chain variable domain of mC2; mouse kappa light chain constant domain; mouse IgG2a, kappa; variable domain joined directly to the constant domain (synthetic genes); also called murine version of Crenezumab; Crenezumab-mC2; source: HEK293 6E cells, transient transfection (pTT5), purified from culture media …
- EC50: 0.0174 nM
